# Source: paper PMC2141627
# Target: laminin 5 (α3β3γ2) purified from SCC25 cell culture medium (human (endogenous in SCC25)) (UniProt Q16787)
# Test: rotary shadowing electron microscopy
substance,measurement,value
NC-1 domain of type VII collagen purified from human amnion (from UniProt Q02388 17-2944) (domain or fragment),stoichiometry N,1
